Data on 30 sequences can be found in the nanobody polyreactivity screen of Harvey et al. (2022).

The data set can be described thus: yeast display, Sf9 membrane polyspecificity reagent, FACS + sequencing; frameworks hold sequencing errors. Put shortly: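 Nanobodies came from a synthetic yeast display library in Saccharomyces cerevisiae BJ5465, induced with galactose for 36–48 hours and stained for 1 hour at 4 °C with 10% biotinylated, detergent-solubilized Sf9 membrane reagent. Cells were enriched on streptavidin microbeads and then FACS-sorted, with low and high (top ~1%) gates set on anti-HA fluorescence for expression and streptavidin fluorescence for reagent binding. Each polyreactivity label reflects the gate a clone came from. Genes were amplified by colony PCR, sequenced by MiSeq 2 × 250 and filtered by CDR length.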
As for “QVQLVESGGGLVQAGGSLRLSCAASGITFQIYAMGWYRQAPGKERELVAAISRSGGSSTNYADSVKGRFTISRDNAKNTVYLQMYSLNPEDTAVYYCAAVSPYTGGANDYWGQGTQVTVSS”, the “polyreactivity (PSR sort gate)” value is on record as “high polyreactivity”. With “QVQLVESGGGLVQAGGSLRLSCAASARIVRKYTMGWFRQAPGKERELVAAISRNGGDTYYADSVKGRFTISRDNAKNTVYLQMHSLKPEDTAVYYCNARTPTDSTHFDYWGQGTQVTVSS” the entry was “low polyreactivity”; with “QVKLVESAGGLVQAGGSLRLSCAASGRTFVGNAMGWYRQEPGKEREVVAAITSRTGSTYYADSVKGRFTISRDNAKNTGYLQMNSLKPEDTAVYYGATPYYQIVYSRKAYNFWGQGTQVTVSS”, “high polyreactivity”.

Consider “QVQLVESGGGLVQAGGSLLLSCAASGRIFRVYAMGWYRQAPGKERELVASITTSGSTYYADSVKGRFTISRDNAKNTVYLQMNSLKPEDTAVYYCAVDNYYTPWYPYLGYDSWGQGTQVTVSS”, for which the “polyreactivity (PSR sort gate)” value was “low polyreactivity”. Turning to “QVQLVESGGGLVQAGGSLRLSCAASGSTFQGYAMGWYRQAPGKERELVARISYTGASTYADSVKGRFTISRDNAKNTVYLQMNSLKPDDTAVYYCNAGGYRYRSYDYWGQGTQVTVSS”, the “polyreactivity (PSR sort gate)” value was “high polyreactivity”. With “QVQLVESGGGLVQAGGSLRLSCAASGSTFTINVMGWYRQSPGKERELVAAINGGGRTNYADSVKGRFTISRDNAKNTVYLQMNSLKPEDTAVYYCAADGLSNVRQMDYWGQGTQVTVSS” the entry was “low polyreactivity”; with “QVQLVESGGGLVQAGGSLRLSCAACGFIFHFYAMGWYRQAPGKERELVASISAIGGSTYYADSVKGRFTISRDNAKNTVYLQMNSLKPEDTAVYYCATYSYRHRRYSRYDYWGQGTQVTVSS”, “high polyreactivity”. With “QVQLVESGGGLVQAGGSLRLSCAASGSIFADYVMGWYRQAPGKERELVAAISRGGGRTYYADSVKGRFTISRDNAKNTVYLQMNSLKPEDTAVYYCAARGYPTNYDPGYTYDYWGQGTQVTVSS” the entry was “high polyreactivity”; with “QVQLVESGGGLVQAGGSLRLSCAASGSTFDGNAMGWYRQAPGKERELVAAITWRDGSTSYADSVKGRFTISRDNAKNTVYLQMNSLKPEDTAVYYCAADYEVYQVASAFDYWGQGTQVTVSS”, “low polyreactivity”. With “QVHLVDSGGGLVQAGGSLSLSCAPSGTTFHPYAMGCYRHAPGKEREFVATISGSAGSTYYADSVKGRFKISRDNAKNTVYLQMNSLKPEDTAVYYCNADSGWFGYDYWGQGTQVTVSS” the entry was “low polyreactivity”; with “QVQLVESGGGLVQAGGSLRLSCAASGLTYWAYAMGWYRQAPGKERDFVAAISWSGDSTYYADSVKGRYTISRDNAKNTVYLQMNSLKPEDTAVYYCAAEWYYVYIAPYDYLGQGTQVTVSS”, “low polyreactivity”; with “QVQLVESGGGLVQAGGSLRLSCAASGFIFLPYAMGWARQAPGKERELVAAITRGGRTYYADSVKGRFTISRDNAKNTVYLQMNSLKPEDTAVYYCAATTYLVWGYNYWGQGTQVTVSS”, “low polyreactivity”. Consider “QVQLVESGGGLVQAGGSIRLSCAASGITFYRNARGWYRQAPGKEMELVAAITWNGGRTYYADSVKGRFTISRDNAKNTVYLQMNSLKPEDTAVYYCAAAYPTYRHYYWGQGTQVTVSS”, for which the “polyreactivity (PSR sort gate)” value is on record as “low polyreactivity”. The result for “QVQHVESGAGLVQAGGSLRLSCAASGIILLENAIGCYRQQPGKERELVSGISSGGNTNYADSVKGRFTISRDNAKNTVYLQINSLKPEDTAVYYCNTDWYLPRYVLPGYFSGTEDYWGKGTQVTVSS” reads “low polyreactivity”. With “QVQLVESGGGLVQAGGSLRLSCAASGSIFLYYAMGWYIQAPGKERELVAGIRRGGRTNYADSVKGRFTISRDNAKNTVYLQMNSLKPEDTAVYYCAKGGYWGHGTQVTVSS” the entry was “high polyreactivity”. In the case of “QVQLVESGGGLVQAGGSLRLSCAASGSIFRWYAMGWYRQAPGKERELVAAISRRGGRTYYADSVKGRFTISRDNAKNTVYLQMNSLKPEDSAVYYCNADFGYRLPGNYWGQGTQVTVSS”, the “polyreactivity (PSR sort gate)” value was “low polyreactivity”. In the case of “QVQLVESGGGLVQAGGSLRLSCAASGRIFKGYAMGWYRQAPGKERELVAAITWRGGTTYYADSVKGRFTISRDNAKNTVYLQMNSLKPEDTAVYYCAVSGKTAHSPQRYYYWGQGTQVTVSS”, the “polyreactivity (PSR sort gate)” value is given as “high polyreactivity”. With “QVQLVESGGGLVQAGGSLRLSCAASGRTFGRYAMVWYRQAPGKEREFVASISRRGGTTYYADSVKGRFTISRDNAKNSVYLQMNSLKPEDTAVYYCNADRTVIYDYEYWGQGTQVTVSS” the entry was “low polyreactivity”. With “QVQLVESGGGLVQAGGSLRLSCAASGSILGFNAMGWYRQPPGKERELVAAIRWSGDSTYADSVKGRFTISRDNAKNSVYLQMNSLKPEDTAVYYCNAVTTYGYWYKYDYWGQGTQVTVSS” the entry was “low polyreactivity”. The result for “QVQLVESGGGLVQAGGSLRLSCAASGGTFTFYAMGWYRQATGKEMELVATINWSGGSTYYADSVKGRFTISRDNAKNTVYLQMNSLKPEDTAVYYCNAAWPYKSVEYWGQGTQVTVSS” reads “low polyreactivity”; that for “QVQLVESGGGLVQAGGSLRLSCAASGSTFPSNAMGWYRQAPGKERELVAAISRSGGSTYYADSVKGRFTISRDNAKNTVYLQMNSLKPEDTAVYFCAVQVRPNSGGTRIHRGGYDYWGQGTQVTVSS”, “low polyreactivity”. Regarding “QVQLVESGGGLVQAGGSLRLSCAASGLTFGDYVMGWYRPAPGKERELVATITSDGGTTYADSVKGRFTISRDNAKNTVYLQMNSLKPEDTAVYYCNADAVVDNYVGFSAAGYDYWGQGTQVTVSS”, the “polyreactivity (PSR sort gate)” value was “low polyreactivity”. “QVQLVESGGGLVQAGGSLRLSCAASGSTFVRYVMGWYRQAPGKERELVAAISRRGGSTYYADSVKGRFTISRDHAKNTVYLQMNSLKPEDTAVYYCARTVGYRTLLESDSWGQGTQVTVSS”: the “polyreactivity (PSR sort gate)” value was “high polyreactivity”. “QEQLHESGGGLVQAGGSLRLSCAASGTISYAGPIGWDRQAPGKAREFVAGIGVGSNTNYADSVKGRFTIIRDNAKNTVYLQMNSLKPEDTAVYYCAVGGYAPLGRPYWGQGTQVTVSS”: the “polyreactivity (PSR sort gate)” value is given as “low polyreactivity”. With “QVQLVESVGGLVQAGGSLRLSCAASGNTFRYNTMGWYRQAPGKERELVAVITRRGSSTYYADSVKGRFTISRDNAKNTVYLQMNSLKPEDTAVYYCAAGYGRYGYVYSGYGKWEDYWGQGTQVTVSS” the entry was “high polyreactivity”.

Regarding “QVQLVESGGGLVQAGGSLRLSCAASGSIFGWYGMGWYRQAPGKERELVAAINWGGTNTYYADSVKGRFTISRDNAKNTVYLQMISLKPEDTAVYSCNADIPRRPNRHYLYDYWGQATQVTVSS”, the “polyreactivity (PSR sort gate)” value is recorded as “low polyreactivity”. Regarding “QEQLQESGGGQVQAGGSLLLSCAASGNIIRYYYMGWYRQAPGKERELVAAITYGTSTNYADSVKGRFTIRRDNAKNTVYLQMNSLKPEDTAVYYCAVDVNYGDPLDNWGQGTQVTVSS”, the “polyreactivity (PSR sort gate)” value is “high polyreactivity”. With “QVQLVESGGGLVQAGGSLRLSFAASGFTFRLYAMGWYRQAPGKERELVAAITSSSGSTYYADSVKGRFTISRDNAKNTVYLQMNSLKPEDTAVYYCNADRGDSSRRYGYWGQGTQVTVSS” the entry was “high polyreactivity”; with “QVQLVESGGGLVQAGGSLRLSCAASGFTFYGYAMVWYRQAPGKERELLAAITFRGDRTYYADSVKGRFTISRDIAKNTVYLQMNSLKPEDTAVYYCAAERPSGWYSYLSLYIVRRGYWGQGTQVTVSS”, “low polyreactivity”; with “QVQLVESGGGLVQAGGSLRLSCAASGRTFNTYAMGWYRQAPGKERELVADISVSGGRTYYADSVKGRFTISRDNAKNTVYLQMNSLKPEDNAVYYCAKRIRYNWTFDYWGQGTQVTVSS”, “low polyreactivity”.
